Laboratory results from PMC7841149.

Target: integrin α5 on preosteoblastic MC3T3-E1 cells (mouse (endogenous in MC3T3-E1)) (UniProt P11688)
Sequence of UniProt P11688 (P11688 45-1053): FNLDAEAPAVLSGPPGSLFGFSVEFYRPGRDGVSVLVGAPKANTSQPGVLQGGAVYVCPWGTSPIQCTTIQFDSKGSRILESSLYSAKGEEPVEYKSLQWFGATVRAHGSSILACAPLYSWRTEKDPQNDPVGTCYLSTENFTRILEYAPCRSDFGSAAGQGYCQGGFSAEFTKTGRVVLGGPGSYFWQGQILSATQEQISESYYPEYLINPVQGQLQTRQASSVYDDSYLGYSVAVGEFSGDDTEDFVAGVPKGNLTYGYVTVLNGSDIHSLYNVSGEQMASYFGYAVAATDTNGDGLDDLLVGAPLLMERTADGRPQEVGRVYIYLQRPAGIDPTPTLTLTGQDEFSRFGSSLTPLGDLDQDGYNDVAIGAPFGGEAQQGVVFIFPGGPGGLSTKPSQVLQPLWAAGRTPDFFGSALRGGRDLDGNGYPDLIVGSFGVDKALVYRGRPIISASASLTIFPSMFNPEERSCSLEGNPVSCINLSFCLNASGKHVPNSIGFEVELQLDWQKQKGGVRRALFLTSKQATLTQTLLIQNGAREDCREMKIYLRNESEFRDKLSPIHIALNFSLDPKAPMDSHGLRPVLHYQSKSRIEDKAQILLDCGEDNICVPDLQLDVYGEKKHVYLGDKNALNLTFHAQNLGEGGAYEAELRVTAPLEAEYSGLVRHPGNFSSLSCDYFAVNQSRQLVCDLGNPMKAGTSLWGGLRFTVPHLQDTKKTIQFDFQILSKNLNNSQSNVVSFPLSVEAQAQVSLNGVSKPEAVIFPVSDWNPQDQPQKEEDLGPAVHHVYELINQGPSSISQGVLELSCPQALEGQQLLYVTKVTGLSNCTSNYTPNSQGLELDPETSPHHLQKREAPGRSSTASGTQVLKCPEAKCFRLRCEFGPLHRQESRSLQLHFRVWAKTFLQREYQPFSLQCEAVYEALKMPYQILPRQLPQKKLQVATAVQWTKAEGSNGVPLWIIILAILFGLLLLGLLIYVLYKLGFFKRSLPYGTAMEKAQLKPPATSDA

- forward migration index (FMI) of MC3T3-E1 cells toward a gradient of 150 ng/ml CTGF with neutralizing integrin α5 antibody (5 μg/ml pretreatment, 15 μg/ml in the reservoir), 12 h: 0.02
- forward migration index (FMI) of MC3T3-E1 cells toward a gradient of 150 ng/ml CTGF, μ-slide chemotaxis chamber, 12 h, CTGF group without antibody: 0.5
- migration distance of MC3T3-E1 cells toward a gradient of 150 ng/ml CTGF with neutralizing integrin α5 antibody, 12 h: 129 μm
- migration distance of MC3T3-E1 cells toward a gradient of 150 ng/ml CTGF, 12 h, CTGF group without antibody: 162 μm
- velocity of MC3T3-E1 cells migrating toward a gradient of 150 ng/ml CTGF with neutralizing integrin α5 antibody, 12 h: 0.25 μm/min
- velocity of MC3T3-E1 cells migrating toward a gradient of 150 ng/ml CTGF, 12 h, CTGF group without antibody: 0.32 μm/min
Substance: connective tissue growth factor (CTGF), recombinant (from UniProt P29279 27-349) (ligand)
